According to article PMC6548965, “Aptameric Probe Specifically Binding Protein Heterodimer Rather Than Monomers”:

Target: IAP-PLAP alkaline phosphatase heterodimer (Homo sapiens (Human), UniProt P09923;P05187 20-503;23-506, GPI-anchored, glycosylated)
Assay: flow; LoVo cells, binding buffer, 4 C
Settings: copies: 1;1; label: FITC or AF647

Sequence of IAP-PLAP alkaline phosphatase heterodimer (P09923 20-503, chain 1 of 2): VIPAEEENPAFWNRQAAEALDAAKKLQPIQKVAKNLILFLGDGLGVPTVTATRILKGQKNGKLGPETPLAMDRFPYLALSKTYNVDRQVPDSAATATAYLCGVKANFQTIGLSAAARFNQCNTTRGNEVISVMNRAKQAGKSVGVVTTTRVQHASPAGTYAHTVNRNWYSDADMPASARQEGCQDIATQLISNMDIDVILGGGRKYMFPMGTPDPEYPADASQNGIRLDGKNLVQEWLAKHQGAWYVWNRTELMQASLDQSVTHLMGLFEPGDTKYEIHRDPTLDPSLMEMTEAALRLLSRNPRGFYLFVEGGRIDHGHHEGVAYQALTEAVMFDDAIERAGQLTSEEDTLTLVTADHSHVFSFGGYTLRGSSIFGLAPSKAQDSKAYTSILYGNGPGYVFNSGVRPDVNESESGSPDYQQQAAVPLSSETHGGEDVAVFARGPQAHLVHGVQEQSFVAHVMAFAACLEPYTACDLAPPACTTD
Sequence of IAP-PLAP alkaline phosphatase heterodimer (P05187 23-506, chain 2 of 2): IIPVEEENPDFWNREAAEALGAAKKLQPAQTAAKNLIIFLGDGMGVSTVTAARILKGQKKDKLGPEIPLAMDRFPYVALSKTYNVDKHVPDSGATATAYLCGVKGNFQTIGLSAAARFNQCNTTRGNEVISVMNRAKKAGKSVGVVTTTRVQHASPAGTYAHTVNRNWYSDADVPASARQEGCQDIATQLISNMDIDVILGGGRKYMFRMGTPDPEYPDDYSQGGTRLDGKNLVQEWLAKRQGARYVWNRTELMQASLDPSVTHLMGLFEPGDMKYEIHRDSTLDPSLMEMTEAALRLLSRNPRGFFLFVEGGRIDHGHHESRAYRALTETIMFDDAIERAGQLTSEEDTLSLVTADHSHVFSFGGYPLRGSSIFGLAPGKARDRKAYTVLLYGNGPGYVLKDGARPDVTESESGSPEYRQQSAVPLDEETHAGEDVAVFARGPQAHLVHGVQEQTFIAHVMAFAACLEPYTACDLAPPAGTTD

Binder | Kd [nM]
TAAAAAATAGGGGTCGGTGTGGGTGGTTATGATTGGCTTTTTTA (ssDNA) [BG4] | 11.5 ± 2.3
TAGGGGTCGGTGTGGGTGGTTATGATTGGC (ssDNA) [BG2c] | 9.3 ± 1.6
